{
  "source": "the supplement of paper PMC12042874",
  "note": "± gives the uncertainty stated by the source.",
  "data": [
    {"experiment": "amyloid nucleation score (Sup35N fusion, yeast selection) (log enrichment); library NNK2; higher = more nucleation; inactive = no reads after selection", "summary_of_the_method": "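In psi-negative yeast, Sup35N fusions carrying peptides of 20 random codons were induced with 100 μM copper sulfate for 24 hours. The cells then grew 7 days at 30°C on medium lacking adenine and uracil, and plasmid inserts from input and output were Illumina-sequenced, excluding sequences with under 100 input reads. Nucleation score is the DiMSum log enrichment of output over input reads, centred on the mode score of non-aggregating sequences.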", "values": [
      {"substance": "YNLFYELNLVLIP", "amyloid nucleation score": "6.137 ± 0.05"},
      {"substance": "GAVHGMT", "amyloid nucleation score": "0.538 ± 0.55"},
      {"substance": "VEFLWGFWWYKPQRKSVGST", "amyloid nucleation score": "-1.54 ± 0.75"},
      {"substance": "NAQYGRCSLWCPCPTVWTA", "amyloid nucleation score": "2.24 ± 0.25"},
      {"substance": "AVFSSVLGYNA", "amyloid nucleation score": "0.257 ± 0.56"},
      {"substance": "DRVCAGLKPVRNN", "amyloid nucleation score": "0.836 ± 0.31"},
      {"substance": "AFLRLRWNSNPVISGTRNRR", "amyloid nucleation score": "0.777 ± 0.48"},
      {"substance": "YICVFLDSYLGHMYRPHWRV", "amyloid nucleation score": "1.91 ± 0.13"},
      {"substance": "LKWQSYG", "amyloid nucleation score": "0.952 ± 0.28"},
      {"substance": "FFMPKGTLRSIGSLFR", "amyloid nucleation score": "-1.65 ± 1.1"},
      {"substance": "LNSYFTFVWTSVFGCVDPYE", "amyloid nucleation score": "5.723 ± 0.035"},
      {"substance": "WLMTYFNISSGFKSVTWVES", "amyloid nucleation score": "3.69 ± 0.11"},
      {"substance": "STMFSVNFST", "amyloid nucleation score": "inactive"},
      {"substance": "GNVWILIYNV", "amyloid nucleation score": "6.164 ± 0.057"},
      {"substance": "FGFIYGTRVEGLSIVSRQSR", "amyloid nucleation score": "2.36 ± 0.14"},
      {"substance": "SHCGHRSATGVLSPLQTKGH", "amyloid nucleation score": "-0.159 ± 0.54"},
      {"substance": "LPGSYNYKGSHSQTNWFLDK", "amyloid nucleation score": "-2.09 ± 1"},
      {"substance": "NCRFFIADVSLYPTWFIFYF", "amyloid nucleation score": "2.82 ± 0.12"},
      {"substance": "KAANVAEDSR", "amyloid nucleation score": "0.978 ± 0.47"},
      {"substance": "NVMFF", "amyloid nucleation score": "1.28 ± 0.13"},
      {"substance": "YFNNPLFVEDFWLSYVSMSY", "amyloid nucleation score": "-0.749 ± 0.32"},
      {"substance": "FTCITIGVFELAQACPIYGG", "amyloid nucleation score": "6.15 ± 0.071"},
      {"substance": "RWDCGGGTNCSGENIWQGET", "amyloid nucleation score": "-0.083 ± 0.34"},
      {"substance": "RVDVLIE", "amyloid nucleation score": "9.82 ± 0.048"},
      {"substance": "MELCYVILWYYIFSCGWWRS", "amyloid nucleation score": "inactive"},
      {"substance": "YACFRPFSDTRRRCGFSTL", "amyloid nucleation score": "inactive"},
      {"substance": "PSLMNEVRMGVQCLLFST", "amyloid nucleation score": "0.108 ± 0.23"},
      {"substance": "RTRLYIDQRRKAFYPGLGFS", "amyloid nucleation score": "0.347 ± 0.55"},
      {"substance": "RYTCRLFTDTYDSSVVLGAM", "amyloid nucleation score": "1.17 ± 0.37"},
      {"substance": "TWKTSLS", "amyloid nucleation score": "inactive"},
      {"substance": "DNRGKLDWAPSSVVSVWLIC", "amyloid nucleation score": "3.74 ± 0.089"},
      {"substance": "CRRTFDSLIS", "amyloid nucleation score": "-0.74 ± 0.78"},
      {"substance": "SLAFNPISCAANLPFFHIQF", "amyloid nucleation score": "0.29 ± 0.77"},
      {"substance": "TSVCM", "amyloid nucleation score": "3.89 ± 0.1"},
      {"substance": "HYSMHVNGDTAAGTYAQAFC", "amyloid nucleation score": "-0.472 ± 0.76"},
      {"substance": "VFGSVADMHM", "amyloid nucleation score": "inactive"},
      {"substance": "RMMVGALAGFMV", "amyloid nucleation score": "0.578 ± 0.35"},
      {"substance": "GWVMVVPFPCMIVVVSAVGS", "amyloid nucleation score": "-0.152 ± 0.4"},
      {"substance": "VSDDHFINCFYGQVSQRKVK", "amyloid nucleation score": "inactive"},
      {"substance": "NRTTSVWG", "amyloid nucleation score": "-0.889 ± 1"},
      {"substance": "VIYRSNLASRGMNHAVFSKR", "amyloid nucleation score": "-0.92 ± 0.28"},
      {"substance": "CLNRNGKEVTWVGLIC", "amyloid nucleation score": "2.46 ± 0.069"},
      {"substance": "KHIFFLREVVNYFMRRTKGL", "amyloid nucleation score": "-0.507 ± 0.64"},
      {"substance": "IDIEMIYERKPVGRIFSDT", "amyloid nucleation score": "-1.25 ± 0.42"},
      {"substance": "VFRYAGRCRNGIVGLYGATM", "amyloid nucleation score": "4.677 ± 0.046"},
      {"substance": "HEVYNKGPT", "amyloid nucleation score": "inactive"},
      {"substance": "TMHCSSLPQTSLVGTNHNAD", "amyloid nucleation score": "-0.327 ± 0.28"},
      {"substance": "VGFRRVTNMDRCSFSLCCCW", "amyloid nucleation score": "4.56 ± 0.064"},
      {"substance": "CSQIRFGRADRLNETSIKLV", "amyloid nucleation score": "0.333 ± 0.54"},
      {"substance": "WNVFKLSGSSYV", "amyloid nucleation score": "-0.483 ± 0.31"},
      {"substance": "KIRTNALYLL", "amyloid nucleation score": "-0.298 ± 0.29"},
      {"substance": "DHLGWHEVTVSLELSFFYRV", "amyloid nucleation score": "4.83 ± 0.11"},
      {"substance": "TLYSVSLGKEFYYG", "amyloid nucleation score": "0.192 ± 0.46"},
      {"substance": "FTKVFRLHYFMRLTSMYVAF", "amyloid nucleation score": "-0.567 ± 1.1"},
      {"substance": "MIIMQANDP", "amyloid nucleation score": "-0.302 ± 0.76"},
      {"substance": "YHLSELVMRREWSDWYNVCG", "amyloid nucleation score": "0.126 ± 0.43"},
      {"substance": "RSRDRGRCWFMMSRGMGGVA", "amyloid nucleation score": "0.483 ± 0.56"},
      {"substance": "GSYTHARINSVIFNRYTLCS", "amyloid nucleation score": "0.219 ± 1"},
      {"substance": "WLLVDGEH", "amyloid nucleation score": "0.025 ± 0.45"},
      {"substance": "HIDVLMGCWMRIVTWSR", "amyloid nucleation score": "2.17 ± 0.29"},
      {"substance": "QLYRCPFCHGGALSYYIRKV", "amyloid nucleation score": "inactive"},
      {"substance": "FNRFLKYMPSSWLWQGCSVQ", "amyloid nucleation score": "-0.451 ± 0.36"},
      {"substance": "NNEFYRRYVGNYSLVMVMGN", "amyloid nucleation score": "-0.088 ± 1.1"},
      {"substance": "LCMRTFGLHHCPGYG", "amyloid nucleation score": "1.2 ± 0.37"},
      {"substance": "YNVDTVYLRGSLLRSYDWCF", "amyloid nucleation score": "-2.32 ± 1.1"},
      {"substance": "QGLFLLSCPSSN", "amyloid nucleation score": "2.54 ± 0.11"},
      {"substance": "DCRDLFLKKVWGYVGRLCEV", "amyloid nucleation score": "inactive"},
      {"substance": "FVCTDCLF", "amyloid nucleation score": "-1.35 ± 0.48"},
      {"substance": "DQGVMLFRG", "amyloid nucleation score": "-0.134 ± 0.32"},
      {"substance": "SNSVCACCKCWLGLSLPYQG", "amyloid nucleation score": "7.781 ± 0.046"},
      {"substance": "RNFFPHGFWSLQTKYNVLFM", "amyloid nucleation score": "5.684 ± 0.05"},
      {"substance": "FGMFM", "amyloid nucleation score": "-0.228 ± 0.32"},
      {"substance": "IVSLLLRQSQ", "amyloid nucleation score": "4.41 ± 0.061"},
      {"substance": "KLMYLKLK", "amyloid nucleation score": "-0.038 ± 1.1"},
      {"substance": "RIRRVSERMSVFRTLHRTMW", "amyloid nucleation score": "5.01 ± 0.079"},
      {"substance": "RLDYNSSCQIFLFAGFMYLF", "amyloid nucleation score": "3.23 ± 0.067"},
      {"substance": "DLWRY", "amyloid nucleation score": "0.102 ± 0.77"},
      {"substance": "SFVTTKSSFL", "amyloid nucleation score": "-0.205 ± 0.74"},
      {"substance": "LLCQITRVAIPCHVCGDDVA", "amyloid nucleation score": "3.81 ± 0.13"},
      {"substance": "EYFTYVSAVWKSWCTYGGPA", "amyloid nucleation score": "0.529 ± 0.38"},
      {"substance": "KLQSCCIF", "amyloid nucleation score": "6.23 ± 0.084"},
      {"substance": "NNDGTPDPNM", "amyloid nucleation score": "-0.237 ± 0.63"},
      {"substance": "HFWVLFMLEETQSKFYLQST", "amyloid nucleation score": "-0.923 ± 0.64"},
      {"substance": "IYYDVFSVSCTFVKLGWIFL", "amyloid nucleation score": "1.96 ± 0.077"},
      {"substance": "FLSINISISRVLLSDCTS", "amyloid nucleation score": "3.05 ± 0.12"},
      {"substance": "RLPFYVW", "amyloid nucleation score": "inactive"}
    ]}
  ]
}
